According to PMC4091690, “A Broadly Conserved G-Protein-Coupled Receptor Kinase Phosphorylation Mechanism Controls Drosophila Smoothened Activity” (PLoS Genetics, 2014):

B1: Smo^core (Drosophila Smoothened amino acids 1-663), C-terminally tagged with GFP10 S634 [Drosophila] / Costal-2 (Cos2), C-terminally tagged with Renilla luciferase II … (parent)
chain 1: MEIPIQVAVRIFPHRELKDLLRSFGPTEPKKDAQAVDEGADSKDSEAQVPAAEKDNPSISETDPNGNAEQDSAADSKTIPDANGNDSGQKDYPDSAYCVQAIPISASALGLPSALPGGDPMDSIAAGLIQVGPHTVPVTHALPSSSSQEQVYHQTVFPLITLFLEGFDASVVTYGQRGQGKSYTLYGNVQDPTLTDSTEGVVQLCVRDIFSHISLHPERTYAINVGFVEICGGDVCDLLGMGNIHCTNVDAVFHWLQVGLSARQSLPAHTLFTLTLEQQWVSKEGLLQHRLSTASFSDLCGTERCGDQPPGRPLDAGLCMLEQVISTLTDPGLMYGVNGNIPYGQTTLTTLLKDSFGGRAQTLVILCVSPLEEHLPETLGNLQFAFKVQCVRNFVIMNTYSDDNTMIVQPAEPVPESNSSAGPLSQAGPGDNFGLQFAASQWSKLVTNAEGLFSKLIDSKLITEVEKEQIEEWLFLKQECEECLSSTEAMRQQKQLVPILEAEEPEDVNSEAANSESPNSDNENDTDNESHRPDLDDKIESLMEEFRDKTDALILEKHAEYLSKHPKAVMQSQDREIEAQPPEENGDDRKVSIGSRRRSVQPGASLSTAELAMLNRVASQQPPPPIDPESVVDPLESSSGEGIRQAALAAAAATAPIEQLQKKLRKLVAEIEGKQRQLREIEETIQVKQNIIAELVKNSDTRSHAKQRFHKKRAKLEAECDKAKKQLGKALVQGRDQSEIERWTTIIGHLERRLEDLSSMKHIAGESGQKVKKLQQSVGESRKQADDLQKKLRKECKLRCQMEAELAKLRESRETGKELVKAQGSPEQQGRQLKAVQARITHLNHILREKSDNLEEQPGPEQQETLRHEIRNLRGTRDLLLEERCHLDRKLKRDKVLTQKEERKLLECDEAIEAIDAAIEFKNEMITGHRSIDTSDRIQREKGEQMLMARLNRLSTEEMRTLLYKYFTKVIDLRDSSRKLELQLVQLERERDAWEWKERVLSNAVRQARLEGERNAVLLQRQHEMKLTLMLRHMAEETSASSASYGERALAPACVAPPVQASSDFDYDHFYKGGGNPSKALIKAPKPMPTGSALDKYKDKEQRSGRNIFAKFHVLTRYASAAAAGSSGSTAEESTALIESTTTATATTTSTTTTGAVGKVKDKALVSFRPEQLKRLMPAPTATKVTRQKNKIIIQDASRRN
chain 2: SSAKFGSTTPASAQQSDVELEPINGTLNYRLYAKKGRDDKPWFDGLDSRHIQCVRRARCYPTSNATNTCFGSKLPYELSSLDLTDFHTEKELNDKLNDYYALKHVPKCWAAIQPFLCAVFKPKCEKINGEDMVYLPSYEMCRITMEPCRILYNTTFFPKFLRCNETLFPTKCTNGARGMKFNGTGQCLSPLVPTDTSASYYPGIEGCGVRCKDPLYTDDEHRQIHKLIGWAGSICLLSNLFVVSTFFIDWKNANKYPAVIVFYINLCFLIACVGWLLQFTSGSREDIVCRKDGTLRHSEPTAGENLSCIVIFVLVYYFLTAGMVWFVFLTYAWHWRAMGHVQDRIDKKGSYFHLVAWSLPLVLTITTMAFSEVDGNSIVGICFVGYINHSMRAGLLLGPLCGVILIGGYFITRGMVMLFGLKHFANDIKSTSASNKIHLIIMRMGVCALLTLVFILVAIACHVTEFRHADEWAQSFRQFIICKISSVFEEKSSCRIENRPSVGVLQLHLLCLFSSGIVMSTWCWTPSSIETWKRYIRKKCGKEVVEEVKMPKHKVIAQTWAKRKDFEDKGRLSITLYNTHTDPVGLNFDVNDLNSSETNDISSTWAAYLPQCVKRRMALTGAATGNSSSHGP

Variants of: B1
Test: BRET
Conditions: with Costal-2 (Cos2), S2 cells treated with smo 3′UTR dsRNA to deplete endogenous Smo, parent: 100, read off a plot

Variant	response
chain 2 S573A T575A T579A T581A S595A S596A T598A S602A S603A T604A T620A T624A S627A S628A S629A	30
